These results are taken from patent US7507555B2, “Probe for detecting and quantifying lipid second messenger and method of detecting and quantifying lipid second messenger using the same” (Japan Science and Technology Agency, priority 2003, dated 2009).

Test [1] relates to clathrin-mediated endocytosis of PDGFR. As to the kind of experiment: Effect of DynK44A expression on PIP3 increase in CHO-PDGFR cells. It is filed as cell-based, Chinese hamster. The protocol:
To explore the molecular mechanism, which underlies the PIP3 increase in the endomembranes, the effect on the PIP3 increase of a dominant-negative mutant of dynamin (DynK44A), in which the lysine 44 is substituted by an alanine, was assessed.
The dynamin is a guanosine triphosphatase (GTPase) that controls the clathrin-mediated endocytosis (Qualmann, B., Kessels, M. M. and Kelly, R. B. (2000) J. Cell Biol., 150, F111-F116) of receptor tyrosine kinases, including PDGFR. DynK44A lacks the GTPase activity and inhibits a clathrin-mediated endocytosis of PDGFR.
The DynK44A was expressed in CHO-PDCFR cells by adenovirus-mediated gene transfer, the cells were stimulated with PDGF (50 ng/mL) and time course of CFP/YFP in endomembranes was measured as shown in FIG. 11. […] On the other hand, in the plasma membrane, the FRET response of Fllip-pm was immediately observed upon PDGF stimulation even in the presence of the DynK44A expression, as observed in the absence of the DynK44A expression (FIG. 12).

The next test relates to PDGFR. As to the kind of experiment: Effect of PTP1B overexpression on PDGF-stimulated PIP3 increase in CHO-PDGFR cells. It is filed as cell-based, Chinese hamster. The settings on record: PTP1B overexpressed. From the text: For further dissecting the PIP3 dynamics in the endomembranes, protein tyrosine phosphatase-1B (PTP1B) was overexpressed in CHO-PDGFR cells by adenovirus-mediated gene transfer. The PTP1B is localized exclusively on the cytoplasmic surface of the ER (Frangioni, J. V., Beaham, P. H., Shifrin, V., Jost, C. A. and Neel, B. G. (1992) Cell, 68, 545-560). It has recently been reported that upon ligand stimulations, receptor tyrosine kinases, including PDGFR, are dephosphorylated and inactivated by the PTP1B on the cytoplasmic surface of the ER after the receptors activated at the cell surface were internalized by endocytosis (Haj, F. G., Verveer, P. J., Squire, A., Neel, B. G. and Bastiaens, P. I. H. (2002), Science, 295, 1708-1711).
The inventors expected the overexpressed PTP1B to selectively dephosphorylate the endocytosed PDGFR and to inhibit the recruitment and activation of PI3K by the PDGFR on the cytoplasmic surface of ER, without affecting the PDCFR in the plasma membrane.

B1: DynK44A: dominant-negative mutant of dynamin in which the lysine 44 is substituted by an alanine (protein, UniProt Q05193 1-864, looked up, variant K44A)
Dynamin-1: MGNRGMEDLIPLVNRLQDAFSAIGQNADLDLPQIAVVGGQSAGASSVLENFVGRDFLPRGSGIVTRRPLVLQLVNATTEYAEFLHCKGKKFTDFEEVRLEIEAETDRVTGTNKGISPVPINLRVYSPHVLNLTLVDLPGMTKVPVGDQPPDIEFQIRDMLMQFVTKENCLILAVSPANSDLANSDALKVAKEVDPQGQRTIGVITKLDLMDEGTDARDVLENKLLPLRRGYIGVVNRSQKDIDGKKDITAALAAERKFFLSHPSYRHLADRMGTPYLQKVLNQQLTNHIRDTLPGLRNKLQSQLLSIEKEVEEYKNFRPDDPARKTKALLQMVQQFAVDFEKRIEGSGDQIDTYELSGGARINRIFHERFPFELVKMEFDEKELRREISYAIKNIHGIRTGLFTPDMAFETIVKKQVKKIREPCLKCVDMVISELISTVRQCTKKLQQYPRLREEMERIVTTHIREREGRTKEQVMLLIDIELAYMNTNHEDFIGFANAQQRSNQMNKKKTSGNQDEILVIRKGWLTINNIGIMKGGSKEYWFVLTAENLSWYKDDEEKEKKYMLSVDNLKLRDVEKGFMSSKHIFALFNTEQRNVYKDYRQLELACETQEEVDSWKASFLRAGVYPERVGDKEKASETEENGSDSFMHSMDPQLERQVETIRNLVDSYMAIVNKTVRDLMPKTIMHLMINNTKEFIFSELLANLYSCGDQNTLMEESAEQAQRRDEMLRMYHALKEALSIIGDINTTTVSTPMPPPVDDSWLQVQSVPAGRRSPTSSPTPQRRAPAVPPARPGSRGPAPGPPPAGSALGGAPPVPSRPGASPDPFGPPPQVPSRPNRAPPGVPSRSGQASPSRPESPRPPFDL
In the case of B1, the “PIP3 increase in the endomembranes by insulin and epidermal growth factor” value in test [1] (DynK44A overexpression) is “inhibited”. The “PDGF-stimulated PIP3 increase in the endomembranes” value in test [1] (overexpression of DynK44A, PDGF 50 ng/mL) was “completely inhibited”. In addition, the “PDGF-stimulated PIP3 increase in the plasma membrane” value in test [1] (overexpression of DynK44A, PDGF 50 ng/mL, Fllip-pm) is “not affected”.

B2: PTP1B: protein tyrosine phosphatase-1B, overexpressed by adenovirus-mediated gene transfer (protein, UniProt P18031 1-435, looked up)
Tyrosine-protein phosphatase …: MEMEKEFEQIDKSGSWAAIYQDIRHEASDFPCRVAKLPKNKNRNRYRDVSPFDHSRIKLHQEDNDYINASLIKMEEAQRSYILTQGPLPNTCGHFWEMVWEQKSRGVVMLNRVMEKGSLKCAQYWPQKEEKEMIFEDTNLKLTLISEDIKSYYTVRQLELENLTTQETREILHFHYTTWPDFGVPESPASFLNFLFKVRESGSLSPEHGPVVVHCSAGIGRSGTFCLADTCLLLMDKRKDPSSVDIKKVLLEMRKFRMGLIQTADQLRFSYLAVIEGAKFIMGDSSVQDQWKELSHEDLEPPPEHIPPPPRPPKRILEPHNGKCREFFPNHQWVKEETQEDKDCPIKEEKGSPLNAAPYGIESMSQDTEVRSRVVGGSLRGAQAASPAKGEPSLPEKDEDHALSYWKPFLVNMCVATVLTAGAYLCYRFLFNSNT
On to B2, for which, in the test on PDGFR (Fllip-em, PDGF 50 ng/mL), the “PDGF-stimulated PIP3 increase in endomembranes” value was “completely lost”. Moreover, the “PIP3 increase in the plasma membrane upon PDGF stimulation” value in the test with PDGFR (monitored with Fllip-pm) is given as “not affected”.
